In patent US20220251174A1 one finds IC50 in pseudovirus assays data, which are given here for two substances.

This test has as its target SARS-CoV-2 Spike protein (Wuhan-1 isolate) on VSV pseudovirus particles (SARS-CoV-2) (UniProt P0DTC2). Kind of test: cell-based or functional assay.

“REGN10933 (benchmark, human IgG1) (antibody)” returned an IC50 in pseudovirus assays of 0.67 µg/mL.

With “REGN10987 (benchmark, human IgG1) (antibody)”, the IC50 in pseudovirus assays came out at 0.45 µg/mL.
